Measurements: patent US7799901B2, “Modulators of the function of FAS receptors and other proteins” (Yeda Research and Development Co. Ltd., priority 1995, dated 2010)
“Also recorded” adds a separate entry of the source.

Assays:
[1] = target: T1, MORT1 (Homo sapiens, UniProt Q13158); experiment: Co-immunoprecipitation with co-expressed MORT1 from HeLa cell lysates; type: binding; parameters: expressed in transfected cells; host or cells: HeLa cells; details: HeLa cells; FLAG-tagged MACH, HA-tagged MORT1
T1 sequence (Q13158 1-208): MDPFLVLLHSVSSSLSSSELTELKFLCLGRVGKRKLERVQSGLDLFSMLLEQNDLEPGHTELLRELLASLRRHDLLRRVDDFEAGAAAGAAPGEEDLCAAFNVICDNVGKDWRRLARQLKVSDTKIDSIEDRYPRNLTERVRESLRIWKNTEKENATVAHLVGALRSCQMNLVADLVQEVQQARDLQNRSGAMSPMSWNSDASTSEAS
Description: It has been shown also to contribute to, though not to suffice in, the self association of MORT-1 (see Example 1). […] To further assess the involvement of the MORT modules in these interactions, deletion mutants of MACHβ1, fused with the FLAG octapeptide (FLAG-MACHβ1), were expressed in HeLa cells and assessed for their binding in vitro to bacterial-produced […] fusion protein (GST-MORT-1). […] FIGS. 9A and 9B show the results (autoradiograms) of the in vitro interaction of MACHβ1 and its deletion mutants with MORT-1. Briefly, 35 [S] metabolically labeled MACHβ1, MACHβ1 fused at its N-terminus to the FLAG octapeptide (FLAG-MACHβ1), C-terminus truncation mutants of FLAG-MACHβ1, and, as a control, luciferase, were produced in transfected HeLa cells. […]
Testing further if MACHα1 can bind to MORT1 also within mammalian cells, MACHα1 or MACHβ1, fused with the FLAG octapeptide was expressed, together with HA epitope-tagged MORT1 molecules. ^35[S] metabolically labeled MACHα1 and MACHβ1 fused at their N-termini to the FLAG octapeptide (FLAG-MACHα1 and β1), and MORT1 fused at its N terminus to the HA epitope (Field et al, 1988) were expressed in HeLa cells. […] The proteins were analyzed by SDS-polyacrylamide gel electrophoresis (12% acrylamide), followed by autoradiography. […]

[2] = system: HeLa cells; experiment: Cell death on overexpression of MACH isoforms in HeLa cells; type: cell-based; details: FIG. 19
Protocol: In brief, 293-EBNA cells, MCF7 human breast carcinoma cells and HeLa HtTA-1 cells were grown in Dulbecco's modified Eagle's minimal essential medium supplemented with 10% fetal calf serum, nonessential amino acids, 100 U/ml penicillin and 100 μg/ml streptomycin. Cell tissue culture dishes (5×10^5 293-EBNA cells, 3×10^5 s MCF7 cells or 3×10^5 HeLa cells in 6-cm dishes) were transiently transfected, using the calcium phosphate precipitation method, with the cDNAs of the indicated proteins together with the β-galactosidase expression vector. In the experiments presented in FIGS. 14A-D and 15, each dish was transfected with 3.5 μg of the indicated MACH construct and 1.5 μg of pSV-β-gal. In the experiments presented in FIGS. 16A-D and 17-19, each dish was transfected with 2.5 μg of the indicated MACH or MORT1 construct (or, as control, empty vector) and 1.5 μg of pSV-β-gal. The cells were rinsed 6 to 10 h after transfection. The 293-EBNA and MCF7 cells were incubated for a further 18 h without additional treatment. The HeLa cells were incubated for 26 h after transfection and-then for 5 h in the presence of either anti-Fas.APO1 antibody (CH11, 0.5 μg/ml) or TNF (100 ng/ml), together with cycloheximide (10 μg/ml). The extent of cell death at the end of the incubation periods was assessed by determination of β-galactosidase expression, as described by Kumar et al, 1994.
To examine the involvement of the CED3/ICE homology region within the MACHα isoforms in their apoptopic effects, cells were transfected with the expression vector for the MACHβ1 isoform, which lacks the CED3/ICE homology region, as well as with expression vectors for MACHα3, which lacks an N-terminal part of the region, and with expression vectors for MACHα1 (C360S) and for a C-terminally truncated mutant of MACHα1 (MACHα1 (1-415)), which lacks one of the residues believed to be critical for CED3/ICE protease function (corresponding to Ser347 in ICE). […]

Row | Molecule | binding to co-expressed MORT1 (co-immunoprecipitation) [1] | cytotoxicity in transfected HeLa cells [2]
1 | MACHα1: MACH isoform, cDNA SEQ ID NO: 14, amino acid SEQ ID NO: 7; contains CED3/ICE homology region | co-immunoprecipitated | 
2 | MACHα1 (C360S): MACHα1 mutant in which the catalytic cysteine Cys360 is replaced by Ser (protein) MDFSRNLYDIGEQLDSEDLASLKFLSLDYIPQRKQEPIKDALMLFQRLQEKRMLEESNLSFLKELLFRINRLDLLITYLNTRKEEMERELQTPGRAQISAYRVMLYQISEEVSRSELRSFKFLLQEEISKCKLDDDMNLLDIFIEMEKRVILGEGKLDILKRVCAQINKSLLKIINDYEEFSKERSSSLEGSPDEFSNGEELCGVMTISDSPREQDSESQTLDKVYQMKSKPRGYCLIINNHNFAKAREKVPKLHSIRDRNGTHLDAGALTTTFEELHFEIKPHDDCTVEQIYEILKIYQLMDHSNMDCFICCILSHGDKGIIYGTDGQEAPIYELTSQFTGLKCPSLAGKPKVFFIQASQGDNYQKGIPVETDSEEQPYLEMDLSSPQTRYIPDEADFLLGMATVNNCVSYRNPAEGTWYIQSLCQSLRERCPRGDDILTILTEVNYEVSNKDDKKNMGKQMPQPTFTLRKKLVFPSD |  | somewhat cytotoxic
3 | MACHβ1: MACH isoform, cDNA SEQ ID NO: 4, amino acid SEQ ID NO: 5; lacks the CED3/ICE homology region (protein) MDFSRNLYDIGEQLDSEDLASLKFLSLDYIPQRKQEPIKDALMLFQRLQEKRMLEESNLSFLKELLFRINRLDLLITYLNTRKEEMERELQTPGRAQISAYRVMLYQISEEVSRSELRSFKFLLQEEISKCKLDDDMNLLDIFIEMEKRVILGEGKLDILKRVCAQINKSLLKIINDYEEFSKERSSSLEGSPDEFSNDFGQSLPNEKQTSGILSDHQQSQFCKSTGESAQTSQH | bound; also recorded: co-immunoprecipitated | more pronounced; also recorded: rather significant cytoxic effect
